{
  "source": "paper PMC7148328",
  "data": [
    {"biological_target": "T1, His-Dbv6 (Nonomuraea gerenzanensis) (UniProt Q7WZ85)", "T1 sequence": "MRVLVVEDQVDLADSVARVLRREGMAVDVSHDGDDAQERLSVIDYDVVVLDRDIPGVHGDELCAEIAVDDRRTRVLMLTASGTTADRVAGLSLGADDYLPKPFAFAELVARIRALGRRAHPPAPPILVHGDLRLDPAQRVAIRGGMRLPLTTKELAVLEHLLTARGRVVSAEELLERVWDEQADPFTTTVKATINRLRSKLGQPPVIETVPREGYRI", "assay": "EMSA", "conditions": "12.5 mM Tris-HCl pH 7.5, 10% glycerol, 62.5 mM KCl, 0.75 mM DTT, 5 mM MgCl2, 20 uL, 4 C; 2.8-14 ug Dbv6 (legend: 0.5-2 mM), 100 ng DNA (legend: …)", "values": [
      {"sequence": "CATTCGTGTCGCCGTCTCGATCGGGGGCTGTCAGTCTGACACCATAGCTCGCGTCCGGTCGATCCTCGAGTTGCCGTCGGGGACGGGCGGGACGTGCCAGCCGTGGAAGCGCAGTGCCTCGGTGAGCCGGCCGGTGTCCTCCGGGCGCACGGAGACCTCGACCA (double strand) [updbv6]", "binding": "no binding"},
      {"sequence": "CCTTCAGCAAACCTCCGAACGGCGACACTATGGCCATGCGGGACTCCTCTCACACGCGCACGCAAGTCAGCGACCTCAATCGTGCTGAGCGGAGCCGATGTCCACGAGTGGGTCCAACTGAACAGTTCGCGCGCTTGGACGCGTTCACCGGTGGTGGTGACCAAGCGTTCACCTGGAC (double strand) [updbv23]", "binding": "binds"},
      {"sequence": "GCAGGAATGGGAAAGGATCTTGCGCGGAGTGCCGCCGCATTGGGGCACCGTTGTCGCGAGATGCGCCAGGGATCATGCCCAGATCTGGGCAGCGTTCGCGGATCGCCTGGAGGGGCGGGCGACCGATCTGGCCGCTGGATGAGCACGAGTGGATGAGCCGGGCGGCCGTATGTAGAGCGACGGGACCAGGACCAGATCAGGCACACGGCAAACCAAGTCGACGAACCGCTTGGGGGACGAGCAAGAGTGCTGTTCGGGCGAGATCGTGAACTGAAGAGTCTGACGAGGTTGCTCGATTC (double strand) [updbv3]", "binding": "binds"},
      {"sequence": "GCAGGTCGGAAGGGACATCTGTTCGGTGGGTGCCGGGCGCTCCATGGCAACTCCCGCGTCATCGAGGTGCTGCGCAGCCCTCGAAGGTCGCACCCGCGGACGAGAGCCTGCTTGATCGCAAGCGTGCTCAACGGACTCGATGTCTACAAGCCGGTCCAGGTGAACGCTTGGTCAC (double strand) [updbv24]", "binding": "binds"},
      {"sequence": "GCATCGGTCTTATCCGAAACTAGGGGGGTGGATGTCCGGGATAGGGGGTGGTTCGACCTGCACAGCCTCCTTTAACCTTCCGGAGGAAGGCCTAACCGAAAGTCGGAGTGATCGGAATGCTAACGGGAAGCGTTCTGCAATTCGATGAGGTAGACGGCTACGGATTCGCGGCGACAGCGTCCAATTCTTTGCCGCGTGGAGTTGCCGAAGAAAAGAGGATGCGACG (double strand) [updbv4]", "binding": "binds"},
      {"sequence": "TGAAGGCGACGATCAACCGGCTGCGCTCGAAGCTCGGCCAGCCGCCGGTGATCGAAACCGTCCCGCGCGAGGGATATCGCATCTGATCCGCGCGGTCACAGAGCGGTCACACGTTCTCTGACCCTCGTGTCACCTTCTGCTCCGTAGAACTGGTGTCAGATCACCAGACTGGAGGAGAGGGATGAGGA (double strand) [updbv7]", "binding": "binds"}
    ]}
  ]
}
